Test results from US20250076311A1 (Chugai, published 2025).
Each block holds one binder with its values, some of them ahead of it.

Experiments:
[1] = molecular target: T1, cynomolgus monkey FcγRIIa3 extracellular domain, His-tagged (cynomolgus monkey); test: SPR (Biacore), 25C, KD of SG1 / KD of variant
T1 construct: also called cyno FcgRIIa3
T1 chain: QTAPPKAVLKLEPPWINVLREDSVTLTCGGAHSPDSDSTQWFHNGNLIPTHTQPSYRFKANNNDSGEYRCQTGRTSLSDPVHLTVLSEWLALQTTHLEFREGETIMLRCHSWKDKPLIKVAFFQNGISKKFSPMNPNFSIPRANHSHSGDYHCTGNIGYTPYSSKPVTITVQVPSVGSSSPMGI

[2] = molecular target: T2, human FcγRIIaH extracellular domain, His-tagged (human, UniProt P12318 34-217); test: SPR (Biacore), 25C, KD of SG1 / KD of variant
T2 construct: also called human FcgRIIaH; FcγRIIa type H
T2 sequence: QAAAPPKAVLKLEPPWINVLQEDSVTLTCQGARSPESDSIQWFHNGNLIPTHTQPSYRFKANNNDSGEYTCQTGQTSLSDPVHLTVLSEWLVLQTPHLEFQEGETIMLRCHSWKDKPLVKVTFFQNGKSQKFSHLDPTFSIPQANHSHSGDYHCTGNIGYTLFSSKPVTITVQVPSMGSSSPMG

[3] = molecular target: T3, cynomolgus monkey FcγRIIb extracellular domain, His-tagged (cynomolgus monkey); test: SPR (Biacore), 25C, KD of SG1 / KD of variant
T3 construct: also called cyno FcgRIIb
T3 chain: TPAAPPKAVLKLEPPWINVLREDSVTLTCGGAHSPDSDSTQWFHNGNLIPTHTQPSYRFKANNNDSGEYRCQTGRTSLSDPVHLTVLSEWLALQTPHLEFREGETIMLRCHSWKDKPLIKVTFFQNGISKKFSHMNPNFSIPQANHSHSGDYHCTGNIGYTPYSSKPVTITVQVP

[4] = molecular target: T4, cynomolgus monkey FcγRIIIaS extracellular domain, His-tagged (cynomolgus monkey, UniProt Q8SPW2 21-206 at identity 1.00)); test: SPR (Biacore), 25C, KD of SG1 / KD of variant
T4 construct: also called cyno FcgRIIIaS
T4 chain: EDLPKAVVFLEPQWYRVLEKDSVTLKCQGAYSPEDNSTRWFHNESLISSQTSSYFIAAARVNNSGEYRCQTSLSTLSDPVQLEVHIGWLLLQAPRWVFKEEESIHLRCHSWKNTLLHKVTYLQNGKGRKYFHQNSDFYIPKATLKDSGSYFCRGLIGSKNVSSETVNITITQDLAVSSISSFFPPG

[5] = molecular target: T5, human FcγRIIaR extracellular domain, His-tagged (human, UniProt P12318 34-217); test: SPR (Biacore), 25C, KD of SG1 / KD of variant
T5 construct: also called human FcgRIIaR; FcγRIIa type R
T5 chain: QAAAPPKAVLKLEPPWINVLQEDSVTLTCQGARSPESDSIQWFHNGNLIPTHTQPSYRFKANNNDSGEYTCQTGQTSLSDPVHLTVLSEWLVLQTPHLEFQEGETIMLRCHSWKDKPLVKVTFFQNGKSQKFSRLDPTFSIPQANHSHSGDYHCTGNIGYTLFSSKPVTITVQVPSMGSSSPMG

[6] = molecular target: T6, human FcγRIIIaV extracellular domain, His-tagged (human, UniProt P08637 17-208); test: SPR (Biacore), 25C, KD of SG1 / KD of variant
T6 construct: also called human FcgRIIIaV
T6 sequence (P08637 17-208 F176V): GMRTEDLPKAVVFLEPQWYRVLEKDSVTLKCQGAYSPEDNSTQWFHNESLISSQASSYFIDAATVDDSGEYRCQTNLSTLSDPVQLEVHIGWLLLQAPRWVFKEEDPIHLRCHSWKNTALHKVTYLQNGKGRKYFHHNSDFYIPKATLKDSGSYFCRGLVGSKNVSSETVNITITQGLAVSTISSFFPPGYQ

[7] = molecular target: T7, cynomolgus monkey FcγRIIa1 extracellular domain, His-tagged (cynomolgus monkey); test: SPR (Biacore), 25C, KD of SG1 / KD of variant
T7 construct: also called cyno FcgRIIa1
T7 chain: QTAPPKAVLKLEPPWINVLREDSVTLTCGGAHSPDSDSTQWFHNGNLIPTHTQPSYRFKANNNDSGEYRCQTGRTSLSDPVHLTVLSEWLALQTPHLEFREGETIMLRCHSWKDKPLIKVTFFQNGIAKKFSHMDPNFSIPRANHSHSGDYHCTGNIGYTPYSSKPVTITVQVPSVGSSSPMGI

[8] = molecular target: T8, human FcγRIIb extracellular domain, His-tagged (human, UniProt P31994 43-217); test: SPR (Biacore), 25C, KD of SG1 / KD of variant
T8 construct: also called human FcgRIIb
T8 sequence: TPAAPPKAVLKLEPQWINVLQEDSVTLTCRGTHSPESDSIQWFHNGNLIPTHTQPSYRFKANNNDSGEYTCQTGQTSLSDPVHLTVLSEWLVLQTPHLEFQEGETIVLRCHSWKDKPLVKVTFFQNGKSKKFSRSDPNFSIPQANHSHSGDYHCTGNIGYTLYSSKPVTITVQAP

[9] = molecular target: T9, cynomolgus monkey FcγRIIa2 extracellular domain, His-tagged (cynomolgus monkey); test: SPR (Biacore), 25C, KD of SG1 / KD of variant
T9 construct: also called cyno FcgRIIa2
T9 chain: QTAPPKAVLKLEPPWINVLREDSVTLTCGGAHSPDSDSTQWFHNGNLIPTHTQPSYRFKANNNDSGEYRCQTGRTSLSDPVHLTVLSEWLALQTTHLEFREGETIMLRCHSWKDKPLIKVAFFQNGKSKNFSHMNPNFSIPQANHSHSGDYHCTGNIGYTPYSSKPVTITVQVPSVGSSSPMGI

[10] = molecular target: T2, human FcγRIIaH extracellular domain, …; test: SPR (Biacore), 25C, antibody captured, FcgR as analyte
Description: (§1) The kinetic analysis of interactions between these antibodies and FcγR was carried out using BIACORE® T200 or BIACORE® 4000 (GE Healthcare). HBS-EP+ (GE Healthcare) was used as the running buffer, and the measurement temperature was set to 25° C. […] After the measurement, the antibody captured on the chip was washed off by allowing reaction with 10 mM glycine-HCl, pH1.5 and 25 mM NaOH so that the chip was regenerated and used repeatedly. The sensorgrams obtained as measurement results were analyzed by the 1:1 Langmuir binding model using the BIACORE® Evaluation Software to calculate the binding rate constant ka (L/mol/s) and dissociation rate constant kd (1/s), and the dissociation constant KD (mol/L) was calculated from these values. […] Regarding such interactions, KD values were calculated using the following 1:1 binding model described in BIACORE® T100 Software Handbook BR1006-48 Edition AE.

[11] = molecular target: T3, cynomolgus monkey FcγRIIb extracellular …; test: as above
Description: as §1

[12] = molecular target: T5, human FcγRIIaR extracellular domain, …; test: as above
Description: as §1

[13] = molecular target: T6, human FcγRIIIaV extracellular domain, …; test: as above
Description: as §1

[14] = molecular target: T9, cynomolgus monkey FcγRIIa2 …; test: as above
Description: as §1

[15] = molecular target: T10, cynomolgus monkey FcγRIIIaS extracellular domain, His-tagged (cynomolgus monkey, UniProt Q8SPW2 21-206 at identity 1.00)); test: SPR (BIACORE), antibody captured, FcγR analyte, 25 C; KD of SG1 divided by KD of variant
T10 construct: also called cyno FcγRIIIaS; cynoFcgRIIIaS
T10 chain: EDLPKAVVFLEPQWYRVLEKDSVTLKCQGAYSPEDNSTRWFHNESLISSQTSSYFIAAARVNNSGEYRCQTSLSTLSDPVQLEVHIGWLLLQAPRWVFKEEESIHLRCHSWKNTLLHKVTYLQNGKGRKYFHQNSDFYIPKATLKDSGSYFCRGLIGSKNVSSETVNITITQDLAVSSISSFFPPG

[16] = molecular target: T11, human FcγRIIaR extracellular domain, His-tagged (human, UniProt P12318 34-217); test: as above
T11 construct: also called human FcγRIIa (type R); FcgRIIaR
T11 chain: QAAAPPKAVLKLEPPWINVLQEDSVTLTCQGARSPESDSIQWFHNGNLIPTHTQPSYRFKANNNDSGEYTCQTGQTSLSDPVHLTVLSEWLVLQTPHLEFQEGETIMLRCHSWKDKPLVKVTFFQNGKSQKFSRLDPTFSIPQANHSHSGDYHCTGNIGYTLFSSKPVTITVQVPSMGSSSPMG

[17] = molecular target: T12, human FcγRIIIaV extracellular domain, His-tagged (human, UniProt P08637 17-208); test: SPR (BIACORE), antibody captured on chip, FcγR as analyte, 25 C; KD of SG1 divided by KD of the variant
T12 construct: also called human FcγRIIIa (V158 allotype); FcgRIIIaV; not shown: His-tag added to the C-terminus
Description: as §1
T12 sequence (P08637 17-208 F176V): as the sequence (P08637 17-208 F176V) above

[18] = molecular target: T13, human FcγRIIaH extracellular domain, His-tagged (human, UniProt P12318 34-217); test: as above
T13 construct: also called human FcγRIIa (type H); FcgRIIaH; not shown: His-tag added to the C-terminus
T13 sequence: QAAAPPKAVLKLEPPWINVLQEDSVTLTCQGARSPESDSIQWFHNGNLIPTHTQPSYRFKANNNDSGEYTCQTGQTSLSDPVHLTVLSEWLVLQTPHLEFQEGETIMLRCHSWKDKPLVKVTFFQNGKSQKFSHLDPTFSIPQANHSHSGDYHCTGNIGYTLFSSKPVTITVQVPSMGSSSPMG
Description: as §1

KD fold (SG1 = 1) [1]: 0.5
KD fold (SG1 = 1) [2]: 0.01
KD fold (SG1 = 1) [3]: 0.4
KD fold (SG1 = 1) [4]: 0.004
KD fold (SG1 = 1) [5]: 0.1
KD fold (SG1 = 1) [6]: 0.002
KD fold (SG1 = 1) [7]: 0.2
KD fold (SG1 = 1) [8]: 3.3
KD fold (SG1 = 1) [9]: 0.2
Kd [10]: 3.5 µM
Kd [11]: 4.3 µM
Kd [12]: 2 µM
Kd [13]: 550 µM
Kd [14]: 2 µM
B1: MS1032LO06-MY009 (antibody, human IgG1, kappa)
heavy: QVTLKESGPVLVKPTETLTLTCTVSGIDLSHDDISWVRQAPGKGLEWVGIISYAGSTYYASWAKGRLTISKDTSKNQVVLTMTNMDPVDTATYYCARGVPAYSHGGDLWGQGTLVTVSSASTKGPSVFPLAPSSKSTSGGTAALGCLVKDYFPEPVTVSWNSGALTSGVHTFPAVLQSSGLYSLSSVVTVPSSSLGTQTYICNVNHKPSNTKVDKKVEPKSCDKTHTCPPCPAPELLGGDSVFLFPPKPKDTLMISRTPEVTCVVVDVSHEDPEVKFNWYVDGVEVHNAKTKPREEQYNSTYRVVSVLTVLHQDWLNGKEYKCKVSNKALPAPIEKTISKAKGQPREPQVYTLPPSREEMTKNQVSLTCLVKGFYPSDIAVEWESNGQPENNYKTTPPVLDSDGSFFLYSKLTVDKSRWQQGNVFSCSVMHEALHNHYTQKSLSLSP
light: DIVMTQSPATLSLSPGERATLSCTSSQSVYHANWLSWFQQKPGQPPKLLIYWASTLAYGVPSRFSGSGSGTDFTLTISSLQPEDAATYYCAGGYGGGRYAFGQGTKVEIKRTVAAPSVFIFPPSDEQLKSGTASVVCLLNNFYPREAKVQWKVDNALQSGNSQESVTEQDSKDSTYSLSSTLTLSKADYEKHKVYACEVTHQGLSSPVTKSFNRGEC
notes: SG1 with P238D (EU numbering); also called M103205H795-MY009/M103202L889-SK1

KD fold (SG1 = 1) [15]: 0.2 fold
KD fold (SG1 = 1) [16]: 4.3 fold
B2: M103205H795-MY458/M103202L889-SK1 (antibody, human IgG1, kappa, name in EU numbering)
heavy: QVTLKESGPVLVKPTETLTLTCTVSGIDLSHDDISWVRQAPGKGLEWVGIISYAGSTYYASWAKGRLTISKDTSKNQVVLTMTNMDPVDTATYYCARGVPAYSHGGDLWGQGTLVTVSSASTKGPSVFPLAPSSKSTSGGTAALGCLVKDYFPEPVTVSWNSGALTSGVHTFPAVLQSSGLYSLSSVVTVPSSSLGTQTYICNVNHKPSNTKVDKKVEPKSCDKTHTCPPCPAYELLTGPSVFLFPPKPKDTLMISRTPEVTCVVVDVSDEDPEVKFNWYVDGVEVHNAKTKPREEQYNSTYRVVSVLTVLHQDWLNGKEYKCKVSNKALPKPIEKTISKAKGQPREPQVYTLPPSREEMTKNQVSLTCLVKGFYPSDIAVEWESNGQPENNYKTTPPVLDSDGSFFLYSKLTVDKSRWQQGNVFSCSVMHEALHNHYTQKSLSLSP
light: DIVMTQSPATLSLSPGERATLSCTSSQSVYHANWLSWFQQKPGQPPKLLIYWASTLAYGVPSRFSGSGSGTDFTLTISSLQPEDAATYYCAGGYGGGRYAFGQGTKVEIKRTVAAPSVFIFPPSDEQLKSGTASVVCLLNNFYPREAKVQWKVDNALQSGNSQESVTEQDSKDSTYSLSSTLTLSKADYEKHKVYACEVTHQGLSSPVTKSFNRGEC

KD fold for humanFcgRs (SG1 = 1) [17]: 0.24 fold
KD fold for humanFcgRs (SG1 = 1) [18]: 9.7 fold
B3: M103205H795-MY321/M103202L889-SK1 (antibody, human IgG1, kappa, name in EU numbering)
heavy: QVTLKESGPVLVKPTETLTLTCTVSGIDLSHDDISWVRQAPGKGLEWVGIISYAGSTYYASWAKGRLTISKDTSKNQVVLTMTNMDPVDTATYYCARGVPAYSHGGDLWGQGTLVTVSSASTKGPSVFPLAPSSKSTSGGTAALGCLVKDYFPEPVTVSWNSGALTSGVHTFPAVLQSSGLYSLSSVVTVPSSSLGTQTYICNVNHKPSNTKVDKKVEPKSCDKTHTCPPCPAPELLHGPSVFLFPPKPKDTLMISRTPEVTCVVVDVSDEDPEVKFNWYVDGVEVHNAKTKPREEQYNSTYRVVSVLTVLHQDWLNGKEYKCKVSNKALPKPIEKTISKAKGQPREPQVYTLPPSREEMTKNQVSLTCLVKGFYPSDIAVEWESNGQPENNYKTTPMVLDSDGSFFLYSKLTVDKSRWQQGNVFSCSVMHEALHNHYTQKSLSLSP
light: DIVMTQSPATLSLSPGERATLSCTSSQSVYHANWLSWFQQKPGQPPKLLIYWASTLAYGVPSRFSGSGSGTDFTLTISSLQPEDAATYYCAGGYGGGRYAFGQGTKVEIKRTVAAPSVFIFPPSDEQLKSGTASVVCLLNNFYPREAKVQWKVDNALQSGNSQESVTEQDSKDSTYSLSSTLTLSKADYEKHKVYACEVTHQGLSSPVTKSFNRGEC
notes: Fc variant made by introducing substitutions into M103205H795-SG1; expressed with M103202L889-SK1 as light chain; Substitution positions are EU numbering
